According to patent US20250302962A1, “BIOCONJUGATE COMPRISING A PHOTOSENSITIZER UNIT, METHOD FOR ITS PREPARATION AND USE THEREOF” (UNIVERSITE DE BORDEAUX, priority 2021, published 2025):

Assays:
Assay type in all cases: physicochemical
[1] = Singlet oxygen quantum yield of the phthalocyanine; conditions: measured in dimethylsulfoxide
Excerpt: It has particularly outstanding photo-physical properties. […] Singlet oxygen quantum yield of this phthalocyanine, measured in dimethylsulfoxide, mounts up to ϕΔ=0.72. The presence of the tert-butyl groups not only minimizes the formation of molecular aggregates, but also increases the solubility of the compound in organic solvents.

[2] = Turbidity assay, onset transition temperature (Tt) of ELP and TT1 bioconjugates in PBS; conditions: for Tt in PBS: PBS pH 7.4, onset transition temperature
Method: UV-Vis spectroscopy: The transition temperatures (Tt) are determined by following the turbidity at 600 or 500 nm absorption versus temperature on Agilent Cary 100 UV-Vis spectrophotometer equipped with a multicell thermo-electric temperature controller. Turbidity is measured over a temperature range from 10 to 60° C. at 1° C. min^−1 of a scan rate before and after the conjugation reaction at three concentrations of phthalocyanine (10, 20 and 30 μM) in phosphate buffer (PBS, pH 7.4).
The thermo-responsive character of ELP, before and after TT1 conjugation, is measured by turbidity assays in phosphate buffer (PBS, pH 7.4) following the absorbance at 600 and 500 nm, respectively, over a temperature range from 10 to 60° C.
The same analysis is carried out for TT1-ELP(O) (obtained by chemical oxidation of methionyl groups) and TT1-ELP^PhOx (obtained by oxidation triggered by photo-irradiation of methionyl groups).

[3] = Dynamic light scattering size distribution of TT1-ELP and TT1-ELP^PhOx
Method: Dynamic light scattering: The DLS measurements of TT1-ELP (at 20° C. and 37° C.) and TT1-ELP^PhOx (at 37° C.) are performed on a Nano ZS 90 instrument (HeNe laser 632.8 nm, Malvern) at a 90° angle at a constant position in the cuvette (constant scattering volume at 30 μM concentration in 1×PBS, pH 7.4). The values of Z-average hydrodynamic diameter (DH) and polydispersity index (PDI) are obtained from the 2nd order cumulant fit using a CONTIN-like algorithm.
In order to mimic the self-assembly and photooxidation-triggered disassembly profile of TT1-ELP, dynamic light scattering (DLS) measurements are performed in physiological conditions (PBS pH 7.4 at 37° C.) on TT1-ELP and TT1-ELP^PhOx.
Due to the stacking tendency of TT1 upon direct dissolution of TT1-ELP in PBS at ambient temperature, 60 nm micelles with narrow size distribution (PDI 0.2) are observed in DLS measurement conducted at 165° angle via 657 nm laser (FIG. 5-A)).

[4] = direct dissolution in PBS, ambient temperature, 165° angle, 657 nm laser

| Molecule | Singlet oxygen quantum yield ϕΔ [1] | Tt in PBS ([2]; 10 μM) | Tt in PBS ([2]; 20 μM) | solubility ([2]; 10, 20 and 30 μM in PBS pH 7.4 at 10° C.) | drop of Tt after conjugation of TT1 ([2]; versus ELP, PBS pH 7.4) | particle size (hydrodynamic diameter) ([3]; above Tt, 37° C., PBS pH 7.4) | PDI [3, 4] | micelle size [3, 4] | aggregation state by DLS ([3]; temperature dropped back to 20° C., PBS pH 7.4) |
| --- | --- | --- | --- | --- | --- | --- | --- | --- | --- |
| 9(10),16(17),23(24)-Tri-tert-butyl-2-carboxy-5,28:14,19-diimino-7,12:21,26-dinitrilotetrabenzo[c,h,m,r][1,6,11,16]tetraazacycloeicosinato-(2)-N^29,N^30,N^31,N^32zinc(II) [TT1] | 0.72 | – | – | – | – | – | – | – | – |
| TT1-ELP: phthalocyanine TT1 coupled by CuAAC triazole linker to the N-terminus of ELP (SEQ ID No: 11) (conjugate, N-terminal phthalocyanine TT1 via triazole; Elastin-like polypeptide) MWVPGVGVPGMGVPGVGVPGVGVPGVGVPGMGVPGVGVPGVGVPGVGVPGMGVPGVGVPGVGVPGVGVPGMGVPGVGVPGVGVPGVGVPGMGVPGVGVPGVGVPGVGVPGMGVPGVGVPGVGVPGVGVPGMGVPGVGVPGVGVPGVGVPGMGVPGVGVPGVGVPGVGVPGMGVPGVGVPGVGVPGVGVPGMGVPGVGVPGVG | – | 29 °C | 28 °C | fully soluble | approximately 10 °C | 1.5 μm | 0.2 | 60 nm | disassembly of these aggregates |
